Assay results from paper PMC8994517 (Nature, 2021).

Biological target: Human Hsp90α (human, UniProt P07900 1-732)
Assay: cryo-EM structure

stoichiometry N: 1 p23 per Hsp90 dimer
B1: Human p23 (natural protein, UniProt Q15185 1-160, looked up)
chain: MQPASAKWYDRRDYVFIEFCVEDSKDVNVNFEKSKLTFSCLGGSDNFKHLNEIDLFHCIDPNDSKHKRTDRSILCCLRKGESGQSWPRLTKERAKLNWLSVDFNNWKDWEDDSDEDMSNFDRFSEMMNNMGGDEDVDLPEVDGADDDSQDSDDEKMPDLE
